# B1: recombinant human lactoferrin (protein, UniProt P02788 20-710, looked up)
# Lactotransferrin: GRRRSVQWCAVSQPEATKCFQWQRNMRKVRGPPVSCIKRDSPIQCIQAIAENRADAVTLDGGFIYEAGLAPYKLRPVAAEVYGTERQPRTHYYAVAVVKKGGSFQLNELQGLKSCHTGLRRTAGWNVPIGTLRPFLNWTGPPEPIEAAVARFFSASCVPGADKGQFPNLCRLCAGTGENKCAFSSQEPYFSYSGAFKCLRDGAGDVAFIRESTVFEDLSDEAERDEYELLCPDNTRKPVDKFKDCHLARVPSHAVVARSVNGKEDAIWNLLRQAQEKFGKDKSPKFQLFGSPSGQKDLLFKDSAIGFSRVPPRIDSGLYLGSGYFTAIQNLRKSEEEVAARRARVVWCAVGEQELRKCNQWSGLSEGSVTCSSASTTEDCIALVLKGEADAMSLDGGYVYTAGKCGLVPVLAENYKSQQSSDPDPNCVDRPVEGYLAVAVVRRSDTSLTWNSVKGKKSCHTAVDRTAGWNIPMGLLFNQTGSCKFDEYFSQSCAPGSDPRSNLCALCIGDEQGENKCVPNSNERYYGYTGAFRCLAENAGDVAFVKDVTVLQNTDGNNNEAWAKDLKLADFALLCLDGKRKPVTEARSCHLAMAPNHAVVSRMDKVERLKQVLLHQQAKFGRNGSDCPDKFCLFQSETKNLLFNDNTECLARLHGKTTYEKYLGPQYVAGITNLKKCSTSPLLEACEFLRK
# Columns and labels:
# [1] = test system: radiant heat-induced tail-flick response in mice; test: Tail flick test, radiant heat-induced pain in mice; type: in vivo
# Protocol: The tail flick test measures the time (max 15 s) required to elicit a radiant heat-induced tail-flick response in mice. Mice received 1000 mg/kg rhLF or placebo orally 60 minutes prior to test (N=5 per group).
# [2] = test system: phenylquinone-induced writhes in mice; test: Phenylquinone (PQ)-induced writhing test in mice; type: in vivo
# Protocol: The PQ test measures the number of writhes seen during a 5-10 minute period following IP injection of phenylquinone in mice (2 mg/kg) (N=3). Mice received 1000 mg/kg rhLF or placebo orally 60 minutes prior to test (N=5 per group).
molecule,measurement,setting,value
B1,reduction in pain as measured by number of tail flicks observed,"[1]; 1000 mg/kg orally 60 minutes prior to test, vs placebo (FIG. 1)",statistically significant reduction in pain
same,difference in tail flick response between placebo and treated groups at time zero,"[1]; 1000 mg/kg orally, time zero (FIG. 1)",No difference in response
same,reduction in pain as measured by number of writhes observed,"[2]; 1000 mg/kg orally 60 minutes prior to test, IP phenylquinone 2 mg/kg, writhes during 5-10 minute period, vs placebo (FIG. 2)",reduction in pain
same,difference in writhing response between placebo and treated groups at time zero,"[2]; 1000 mg/kg orally, time zero (FIG. 2)",No difference in response
